Results published in patent publication US20210253725A1 (BIONTECH, published 2021).

How the values were obtained:
[1] = biological target: T1, CD27 protein (His-tagged, Sino Biological Inc. 10039-H08B1) (human, UniProt P26842 20-192); assay: ELISA on coated His-tagged CD27
T1 construct: bought; coated onto ELISA plates; also called human CD27; recombinant protein; not shown: His tag
T1 sequence (looked up): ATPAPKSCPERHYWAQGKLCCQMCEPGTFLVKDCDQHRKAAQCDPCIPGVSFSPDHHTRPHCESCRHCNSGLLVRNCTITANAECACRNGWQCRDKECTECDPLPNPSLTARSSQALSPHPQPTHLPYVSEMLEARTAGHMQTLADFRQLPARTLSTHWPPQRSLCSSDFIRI

[2] = biological target: T2, CD27 expressed on the cell surface (HT1080_CD27 cells) (human, UniProt P26842 20-260); assay: cellular binding assay, HT1080_CD27 cells
T2 construct: whole, on cells; also called K562_CD27
T2 sequence (looked up): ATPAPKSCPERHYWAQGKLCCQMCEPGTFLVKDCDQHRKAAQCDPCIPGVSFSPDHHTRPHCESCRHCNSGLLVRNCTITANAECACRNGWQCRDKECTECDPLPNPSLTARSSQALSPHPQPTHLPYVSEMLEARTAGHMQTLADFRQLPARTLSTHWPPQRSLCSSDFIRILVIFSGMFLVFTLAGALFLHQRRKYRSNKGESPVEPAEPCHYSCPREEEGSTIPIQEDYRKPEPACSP

[3] = biological target: T2, CD27 expressed on the cell surface …; assay: cell-based or functional assay
Further: test concentration or dose not given here.

ELISA [abs. corr.] [1] [abs. corr.]	Cellular binding assay [RFU] [2] [RFU]	IL-8, cross-linked by F(ab')2 fragment [abs. corr.] [3] [abs. corr.]	IL-8 [abs. corr.] [3] [abs. corr.]	Binder
3.25	308	1.46	0.455	P018.S.10.A.B06 (antibody, V domains shown, V regions on human Ig constant parts; also called AB27_169) VH: QSVEESGGRLVTPGTPLTLTCTVSGFSLSSSHMCWVRQAPGKGLEWIGVINIGDIAYYASWAKGRFTISKTSTTVDLKMTSLTAADTATYFCARENAYGTGWDFDLWGQGTLVTVSS VL: AYDMTQTPASVEVAVGGTVTIKCQASESIRNALAWYQQKPGQPPKQLIYSASTLASGVPSRFKGSGSGTEFTLTISGVQSDDAATYYCQQGFSLRNVDNAFGGGTEVVVK
3.25	144	2.1	1.57	P018.S.10.A.H02 (antibody, V domains shown, V regions on human Ig constant parts; also called AB27_185) VH: QSLEESGGRLVTPGGSLTLTCTVSGIDLSSYAMGWFRQAPGKGLEYIGIIYSSGSTWFANWVKGRFTISKTSTTVDLKMTSLTTEDTATYFCARYSAADHGDKFKLWGQGTLVTVSS VL: AAVLTQTPSPVSAAVGGTVSISCQSSKNIFDNTRLSWFQQKPGQPPKQLIYGASTLASGVPSRFSGSGSGTQFTLTISGVQSDDAATYYCLGEYSSDSDTSFGGGTEVVVK
3.25	256	1.19	-0.16	P018.S.07.A.H05 (antibody, V domains shown, V regions on human Ig constant parts; also called AB27_133) VH: QSLEESGGRLVTPGTPLTLTCTASGFSLNSYYINWVRQAPGKGLEWIGFINGYDNTWYASWAKGRFTISRTSTTVDLRITSPTTEDTATYFCARDPGGASGTGRLDLWGQGTLVTVSS VL: DIVMTQTPASVSAAVGGTVTINCQASQSISTALAWYQQKPGQRPKLLIYDASKLASGVPSRFKGNGSGTEFTLTISDLESADAATYYCQCTYYDAYDVGAFGGGTEVVVN
3.23	331	1.69	0.173	P018.S.06.A.H04 (antibody, V domains shown, V regions on human Ig constant parts; also called AB27_111) VH: QEKLEESGGGLVKPGGSLTLPCTASGFTLSSRYYMCWVRQAPGKGLEWIGCIYAGSLRTWYASWAKGRFTISKTSSTTVTLQMTSLTAADTATYFCARSPGVAASYPELWGPGTLVTVSS VL: AQVLTQTPSSVAAAVGGTVSISCQSSQSVGNADNLAWYQQKPGQPPNLLIYYAASLASGVPSRFKGSGSGTQFTLTISDLESDDAATYYCGGGYYNSTDTFYTFGGGTEVVVK
3.23	283	1.61	0.519	P018.S.06.A.C02 (antibody, V domains shown, V regions on human Ig constant parts; also called AB27_100) VH: QSVEESGGRLVTPGTPLTLTCIVSGIDLSSNAMSWVRQAPGKGLEWIGIIGFAGITYYANWAKGRFTISKTSTTVDLKITSPTTEDTATYFCARAYGDSDGLYNLWGQGTLVTVSS VL: AQVLTQTASSVSAAVGGTVTISCQSSESVYNNNWLGWFQQKPGQPPKLLIYLASTLASGVPSRFKGSGSGTQFTLTISDLESDDAATYYCQGGYSGNIFAFGGGTEVVVN
3.23	366	1.81	0.737	P018.S.06.A.A02 (antibody, V domains shown, V regions on human Ig constant parts; also called AB27_95) VH: QEQLVESGGGLVQPEGSLTLTCTSSGFSLNSNYYISWVRQAPGKGLEWIACIDAGSGSTWYASWVKGRFTISKTSSTTVTLQMTSLTAADTATYFCARDDIGTSYEYYFGLWGPGTLVTVSS VL: DVVLTQTPASVSEPVGGTVTIKCQASQTISSYLAWYQQKSGQPPKLLIYSASTLASGVSSRFKGSGSGTEYTLTISDLESADAATYYCQTYYGSDSYVFGGGTEVVVK

The remaining lines, values behind:

Binder	ELISA [abs. corr.] [1] [abs. corr.]	Cellular binding assay [RFU] [2] [RFU]	IL-8, cross-linked by F(ab')2 fragment [abs. corr.] [3] [abs. corr.]	IL-8 [abs. corr.] [3] [abs. corr.]
P018.S.02.A.D04 (antibody, V domains shown, V regions on human Ig constant parts; also called AB27_33) VH: QEQLVESGGGLVQPEGSLTLTCTASALSFYSAWICWVRQAPGKGLKWIACIYAGGSRSTYYATWATGRFTISEASSTTVTLQMTSLTAADTATYFCARSLSADTYWNLWGPGTLVTVSS VL: DVVMTQTPASVEAAVGGTVTIKCQASESISSWLAWYQQKPGQPPKLLIYRASTLESGVPSRFKGSGSGTEFTLTISDLESADAATYYCQNNGGGTSGYTFGGGTEVVVK	3.27	390	1.37	0.569
P018.S.02.A.B03 (antibody, V domains shown, V regions on human Ig constant parts; also called AB27_30) VH: QSLEESGGGLVKPGGTLTLTCTASGFSLSSTYMSWVRQAPGKGLEWIGDIYTDGSTYYASWVNGRFTISKTSTTVDLKMTSLTTEDTATYFCARGAAAAYDLWGQGTLVTVSS VL: AYDMTQTPASVSAAVGGTVTIKCQASQNIYTNLAWYQQKPGQPPKLLIYGVSNLESGVPSRFKGSGSGTQFTLTISGVQSDDAATYYCQQGYSSTNVENAFGGGTEVVVK	3.25	332	1.16	0.12
P018.S.01.A.C02 (antibody, V domains shown, V regions on human Ig constant parts; also called AB27_7) VH: QSLEESGGDLVQPGASLTLTCTASGLDFISSYMCWVRQAPGKGLEWIGCIAPGGGNTYYATWAKGRFTFSETSSTTVTLQMTSLTAADTATYFCARTYPSIWYFGLWGPGTLVTVSS VL: DVVMTQTPASVSEPVGGTVTIKCQASQSIGSNLGWYQQKPGQPPKLLIYGASTLASGVSSRFKGSGSGTEFTLTMSDLESADAATYYCQSFYAASSAFGGGTEVVVK	3.25	324	1.48	0.395
P018.S.01.A.A04 (antibody, V domains shown, V regions on human Ig constant parts; also called AB27_1) VH: QSVEESGGRLVTPGTPLTLTCTVSGFSLSRYWVSWVRQAPGKGLEAIGVIDNGDTAYYASWAKGRFTISKTSSITVDLKMTSLTTEDTATYFCTREGADHSGQDLWGQGTLVTVSS VL: AAVLTQTPSPVSAAVGGTVTINCQASQSVISNNDLSWYQQKPGQPPKLLIYRASNLASGVPSRFEGSGSGTQFTLTISDLESEDAATYYCQGGYAGIVDRRPFGGGTEVVVK	3.24	315	1.03	0.236
P018.S.01.A.C04 (antibody, V domains shown, V regions on human Ig constant parts; also called AB27_8) VH: QSLEESGGGLVTPGGTLTLTCTASGSDISTYHMGWFRQAPGKGLEYIGFINTGGTTWYASWAKGRFTVSRTSTTVDLLMTSPTTEDTATYFCARYDAGHAFFDLWGPGTLVTVSS VL: AVVMTQTASPVSAAVGGTVTIKCQASQSIGSSYFSWYQQKPGQPPKLLIYSASTLASGVSSRFKGSGSGTEYTLTISDLESADAATYYCQGYDGDTTTAFFAFGGGTEVVVE	3.24	368	1.08	0.383
P018.S.03.A.C04 (antibody, V domains shown, V regions on human Ig constant parts; also called AB27_45) VH: QSVEESGGRLVTPGTPLTLTCTVSGVDLSRYAMSWVRQAPGEGLEWIGTIWYSGTTYYASWAKGRFTISKTSSTTVDLKMTSLTAADTATYFCARDPLYVGGNSGSDLWGPGTLVTVSS VL: DVVMTQTPASVSAAVGGTVTINCQASQSIGSSLAWYQQKPGQRPKLLIYYASTLASGVPSRFSGSGSGTEFTLTISDLESADAATYYCQSNYGAASSSYGAFGGGTEVVVK	3.52	337	1.48	0.394
P018.S.02.A.A01 (antibody, V domains shown, V regions on human Ig constant parts; also called AB27_27) VH: QSVEESGGRLVTPGTPLTLTCTVSGIDLSRYAMGWVRQAPGKGLEYIGIISSSGSTYYASWIKGRFTISKTSTTVDLKITSPTTEDTATYFCARSPYASTSASAFNLWGPGTLVTVSS VL: AFELTQTPSSVEAAVGGTVTIKCQASQSISSWLSWYQQKPGQPPKLLIYEASKLASGVPSRFKGSGSGTQFTLTISDLESADAATYYCQSYSSTTTNTFGGGTEVVVK	3.23	350	1.62	0.4
